One block for each binder: values may come before it.
Tests used:
[1] = biological target: T1, mouse DLK1 fused to mGFP, overexpressed on HEK293T cells (mouse, UniProt Q09163 24-385); assay: KinExA on HEK293T DLK1mGFP Mouse mass pop cells detached by Versene; Error% 3.08; 95% CI 4.21nM - 26.32nM; equilibrium curves 400pM, 50nM
T1 construct: not shown: mGFP fluorescent protein fused to DLK1
T1 sequence: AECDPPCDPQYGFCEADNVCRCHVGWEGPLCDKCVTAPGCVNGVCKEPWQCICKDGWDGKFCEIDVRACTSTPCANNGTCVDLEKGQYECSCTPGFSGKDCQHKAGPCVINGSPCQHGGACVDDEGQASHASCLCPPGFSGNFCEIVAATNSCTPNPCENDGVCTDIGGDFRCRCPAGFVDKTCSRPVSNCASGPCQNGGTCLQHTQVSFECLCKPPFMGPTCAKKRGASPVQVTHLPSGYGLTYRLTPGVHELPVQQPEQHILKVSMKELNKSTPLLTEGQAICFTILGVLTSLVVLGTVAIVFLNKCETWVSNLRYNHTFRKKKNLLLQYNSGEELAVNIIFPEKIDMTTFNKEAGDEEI

[2] = biological target: T2, monkey DLK1 fused to mGFP, overexpressed on HEK293T cells (monkey (crab-eating macaque), UniProt A0A2K5TMQ6 24-383); assay: KinExA on HEK293T DLK1mGFP Monkey mass pop cells detached by Versene; Error% 3.92; 95% CI 5.15nM - 17.83nM; equilibrium curves 400pM, 50nM
T2 construct: whole, on cells; also called crab-eating macaque DLK1; not shown: mGFP fluorescent protein fused to DLK1
T2 sequence: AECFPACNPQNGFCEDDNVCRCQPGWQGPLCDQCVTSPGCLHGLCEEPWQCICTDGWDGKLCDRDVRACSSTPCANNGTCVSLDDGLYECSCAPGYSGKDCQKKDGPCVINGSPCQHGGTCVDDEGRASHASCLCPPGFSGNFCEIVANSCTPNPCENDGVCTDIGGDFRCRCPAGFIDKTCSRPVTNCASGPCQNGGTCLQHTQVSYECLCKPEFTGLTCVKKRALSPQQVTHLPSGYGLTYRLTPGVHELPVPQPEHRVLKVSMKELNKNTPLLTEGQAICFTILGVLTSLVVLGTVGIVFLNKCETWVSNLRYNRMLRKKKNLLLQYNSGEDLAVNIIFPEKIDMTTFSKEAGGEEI

[3] = biological target: T3, rat DLK1 fused to mGFP, overexpressed on HEK293T cells (rat, UniProt O70534 24-383); assay: KinExA on HEK293T DLK1mGFP Rat mass pop cells detached by Versene; Error% 3.17; 95% CI 1.82nM - 13.53nM; equilibrium curves 400pM, 50nM
T3 construct: whole, on cells; not shown: mGFP fluorescent protein fused to DLK1
T3 sequence (looked up): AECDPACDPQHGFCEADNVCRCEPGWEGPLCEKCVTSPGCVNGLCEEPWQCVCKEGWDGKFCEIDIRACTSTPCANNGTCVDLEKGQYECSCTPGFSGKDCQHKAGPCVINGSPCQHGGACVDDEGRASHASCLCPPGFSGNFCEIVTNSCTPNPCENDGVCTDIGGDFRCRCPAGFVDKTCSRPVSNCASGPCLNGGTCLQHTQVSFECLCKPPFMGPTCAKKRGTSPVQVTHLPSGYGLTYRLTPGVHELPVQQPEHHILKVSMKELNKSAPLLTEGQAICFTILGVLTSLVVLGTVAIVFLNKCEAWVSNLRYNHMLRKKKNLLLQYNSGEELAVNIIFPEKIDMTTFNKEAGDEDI

[4] = biological target: human DLK1 endogenously expressed on COR-L279 small cell lung carcinoma cells (human) (UniProt P80370); assay: KinExA on cells, row CORL-279 cells(adherent)
[5] = biological target: T2, monkey DLK1 fused to mGFP, …; assay: KinExA on HEK293T DLK1mGFP Monkey mass pop cells detached by Versene; Error% 2.87; 95% CI 1.33nM - 3.45nM; equilibrium curves 400pM, 50nM
[6] = biological target: T4, human DLK1 short form (isoform 2, DLK1-MB) fused to mGFP, expressed on HEK293T cells (human, UniProt P80370 24-383); assay: cell-based or functional assay
T4 sequence: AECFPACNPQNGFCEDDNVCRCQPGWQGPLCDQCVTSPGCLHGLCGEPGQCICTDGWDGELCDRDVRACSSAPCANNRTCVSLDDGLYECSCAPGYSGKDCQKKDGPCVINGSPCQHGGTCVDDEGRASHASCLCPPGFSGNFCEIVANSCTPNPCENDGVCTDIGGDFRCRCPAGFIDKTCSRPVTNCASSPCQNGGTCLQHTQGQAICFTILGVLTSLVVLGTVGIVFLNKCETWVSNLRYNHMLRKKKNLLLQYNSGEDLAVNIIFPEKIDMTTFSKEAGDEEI

[7] = biological target: either the long or short form of the human DLK1 protein (DLK1 ECD-mFc long form or short form, ELISA coat); assay: ELISA, plates coated with DLK1 ECD-mFc long form or short form, anti-human IgG Fc-HRP detection
[8] = biological target: T5, human DLK1 long form (isoform 1, DLK1-FL) fused to mGFP, overexpressed on HEK293T cells (human, UniProt P80370 24-383); assay: KinExA on HEK293T DLK1mGFP Human Clone G06 cells detached by Versene; Error% 3.83; 95% CI 0.455nM - 2.19nM; equilibrium curves 500pM, 20nM
T5 construct: also called HEK293T DLK1 mGFP G06 (long form); DLK-FL; not shown: mGFP fluorescent protein fused to DLK1
T5 sequence: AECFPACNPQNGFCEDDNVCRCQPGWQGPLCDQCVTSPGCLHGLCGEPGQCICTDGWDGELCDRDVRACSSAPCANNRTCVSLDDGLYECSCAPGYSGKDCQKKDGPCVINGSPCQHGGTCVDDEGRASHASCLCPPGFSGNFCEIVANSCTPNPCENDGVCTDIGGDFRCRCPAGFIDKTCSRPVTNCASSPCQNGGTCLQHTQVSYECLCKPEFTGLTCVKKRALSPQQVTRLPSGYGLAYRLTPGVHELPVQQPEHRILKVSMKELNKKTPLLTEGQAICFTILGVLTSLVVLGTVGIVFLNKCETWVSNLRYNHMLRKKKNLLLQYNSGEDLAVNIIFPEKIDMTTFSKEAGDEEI

Kd [1]: 13 nM | Kd [2]: 9.89 nM | Kd [3]: 5.96 nM | Kd [4]: 8.2 nM
B1: humanized anti-DLK1 antibody 04-0547-h2 (IgG1) (antibody, V domains shown)
VH: EVQLVESGGGLVQPGGSLRLSCAASGFSISDYYMAWVRQAPGKGLEWVANINYDGTNTYYADSVKGRFTISRDNSKNTLYLQMNSLRAEDTAVYYCVRSYYYYGMEYWGQGTTVTVSS
VL: DIQMTQSPSSLSASVGDRVTITCRASHDVSTAVAWYQQKPGKAPKLLIYSASYRYTGVPSRFSGSGSGTDFTLTISSLQPEDFATYYCQQHYRIPLTFGQGTKLEIK
notes: human kappa (P01834) and human IgG1 (P01857) constant regions

Kd [5]: 2.19 nM | ADCC reporter assay: NFAT activation (Lucia luciferase) in Jurkat-Lucia NFAT-CD16 effector cells, EC50 [6]: ~0.101 µg/mL | EC50 [7]: 0.81 to 0.87 nM | Kd [8]: 1.11 nM
B2: humanized anti-DLK1 antibody 04-0561-F1 (IgG1) (antibody, V domains shown)
VH: QVQLQESGPGLVKPSETLSLTCTVSGFSLSIYSVHWVRQPPGKGLEWIGLIWGGGSTDYNPSLKSRVTISKDTSKNQVSLKLSSVTAADTAVYYCARKEGNYLWFAYWGQGTLVTVSS
VL: DIVMTQSPDSLAVSLGERVTMNCKSSQSLLQSSNQKNYLAWYQQKPGQPPKLLVYFASTRESGVPDRFSGSGSGTDFTLTISSVQAEDVAVYYCQQHYSIPLTFGQGTKLEIKR
